The values below are quoted from earlier work in paper PMC3522611.

The target in this data set is EGFR (Homo sapiens) (UniProt P00533).

As a reminder, the Kd is a measure of binding affinity in units of concentration. HB-EGF (from UniProt Q99075): the dissociation constant Kd was 3.8 nM.
